Results on 38 sequences are retold here after the supplement of paper PMC7877785.

± gives the uncertainty stated by the source.

The data set can be described thus: self-splicing fitness, log relative to wild type (ln ratio); higher = more splicing; Tetrahymena group I intron in knt gene, E. coli kanamycin selection, DiMSum; sequences stand for … in CUCUCU…GGAGGGAAAAGUUAUCAGGCAUGCACCUGGUAGCUAGUCUUUAAACCAAUAGAUUGCAUCGGUUUAAAAGGCAAGACCGUCAAAUUGCGGGAAAGGGGUCAACAGCCGUUCAGUACCAAGUCUCAGGGGAAACUUUGAGAUGGCCUUGCAAAGGGUAUGGUAAUAAGCUGACGGACAUGGUCCUAACCACGCAGCCAAGUCCUAAGUCAACAGAUCUUCUGUUGAUAUGGAUGCAGUUCACAGACUAAAUGUCGGUCGGGGAAGAUGUAUUCUUCUCAUAAGAUAUAGUCGGACCUCUCCUUAAUGGGAGCUAGCGGAUGAAGUGAUGCAACACUGGAGCCGCUGGGAACUAAUUUGUAUGCGAAAGUAUAUUGAUUAGUUUUGGAGUACUCGUGGUCG
The essentials:
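Library with all eight P1ex-region intron nucleotides randomised, intron inside the knt kanamycin-resistance gene on pET-22b(+), in E. coli BL21(DE3). Cells grew overnight at 37°C or 30°C on LB agar with or without 25 μg/mL kanamycin (plus 100 μg/mL carbenicillin, 50 μM IPTG, 0.2% rhamnose), in six replicate transformations. Pooled colonies were amplicon-sequenced on Illumina HiSeq 2500. DiMSum fitness is the error-weighted combination of wild-type-normalised replicate fold changes, kanamycin versus none.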

As to AAGAAGCAAUAUUACGGAUC, the “self-splicing fitness (ln)” value is -1.23 ± 0.11 (30 °C) and 0.142 ± 0.17 (37 °C). GAUGAGCAAUAUUACGGAUU: the “self-splicing fitness (ln)” value by setting is: (30 °C) -3.44 ± 0.44; (37 °C) -1.68 ± 0.2. Taken in the same sequence, the figures for CAUCAGCAAUAUUACGUACU were -2.68 ± 0.18 and -1.65 ± 0.22. As for GCGCAGCAAUAUUACGUCUA, the “self-splicing fitness (ln)” value (30 °C) was -0.763 ± 0.07 and the “self-splicing fitness (ln)” value (37 °C) was -0.321 ± 0.079. For the sequence AUCCAGCAAUAUUACGUGCC, the “self-splicing fitness (ln)” value is, setting by setting: (30 °C) -3.16 ± 0.21; (37 °C) -1.09 ± 0.16. For the sequence GCGCAGCAAUAUUACGUAAA, the “self-splicing fitness (ln)” value turned out to be 0.442 ± 0.089 (30 °C) and 0.263 ± 0.12 (37 °C). Turning to UCGAAGCAAUAUUACGGUCC, the “self-splicing fitness (ln)” value reads like this: (30 °C) -4.15 ± 0.42; (37 °C) -1.95 ± 0.31. Consider AUGGAGCAAUAUUACGGGUG, for which the “self-splicing fitness (ln)” value is, setting by setting: (30 °C) -3.75 ± 0.39; (37 °C) -2.18 ± 0.22. With UGAUAGCAAUAUUACGUUAU, the “self-splicing fitness (ln)” value is -3.61 ± 0.18 (30 °C) and -2.52 ± 0.17 (37 °C).

Turning to UCUGAGCAAUAUUACGGGUA, under “37 °C”, the “self-splicing fitness (ln)” value was -2.42 ± 0.34. Consider AUCAAGCAAUAUUACGCCCU, for which the “self-splicing fitness (ln)” value (30 °C) was 0.228 ± 0.14 and the “self-splicing fitness (ln)” value (37 °C) was 0.617 ± 0.18.

With UAUAAGCAAUAUUACGCGGC, the “self-splicing fitness (ln)” value runs as follows: (30 °C) -3.53 ± 0.35; (37 °C) -2.92 ± 0.47. On to GGUCAGCAAUAUUACGUCUA, for which the “self-splicing fitness (ln)” value is, setting by setting: (30 °C) -0.0881 ± 0.073; (37 °C) 0.0699 ± 0.078. Consider CUUGAGCAAUAUUACGACGC, for which the “self-splicing fitness (ln)” value is -2.13 ± 0.39 (30 °C) and -1.9 ± 0.46 (37 °C).

UUUUAGCAAUAUUACGCAUA: the “self-splicing fitness (ln)” value (30 °C) is -1.52 ± 0.27 and the “self-splicing fitness (ln)” value (37 °C) is -0.671 ± 0.21. Regarding CUUCAGCAAUAUUACGGGAA, the “self-splicing fitness (ln)” value (30 °C) is -1.22 ± 0.097 and the “self-splicing fitness (ln)” value (37 °C) is -2.08 ± 0.1.

For the sequence GUUCAGCAAUAUUACGCAAA, the “self-splicing fitness (ln)” value is -0.717 ± 0.17 (30 °C) and -0.625 ± 0.18 (37 °C). With UGAAAGCAAUAUUACGACAC, the “self-splicing fitness (ln)” value is -2.11 ± 0.34 (30 °C) and -1.18 ± 0.4 (37 °C). Take AACUAGCAAUAUUACGAUAU: the “self-splicing fitness (ln)” value was -1.26 ± 0.077 (30 °C) and -0.429 ± 0.11 (37 °C).

In the case of GAAGAGCAAUAUUACGGUGU, the “self-splicing fitness (ln)” value is -3.49 ± 0.14 (30 °C) and -3.02 ± 0.23 (37 °C). ACCCAGCAAUAUUACGUACG: the “self-splicing fitness (ln)” value is, setting by setting: (30 °C) -2.2 ± 0.14; (37 °C) -1.71 ± 0.16. UCUUAGCAAUAUUACGCGCU: the “self-splicing fitness (ln)” value was -3.3 ± 0.47 (30 °C) and -3.27 ± 0.39 (37 °C). With CUAUAGCAAUAUUACGUUAU, the “self-splicing fitness (ln)” value is, setting by setting: (30 °C) -3.27 ± 0.21; (37 °C) -2.38 ± 0.32. In the case of CCAGAGCAAUAUUACGGUGA, the “self-splicing fitness (ln)” value was -3.55 ± 0.2 (30 °C) and -2.6 ± 0.23 (37 °C).

Take AGUGAGCAAUAUUACGUUGA: the “self-splicing fitness (ln)” value was -2.51 ± 0.13 (30 °C) and -2.75 ± 0.2 (37 °C). The matching figures for CGUAAGCAAUAUUACGUGUA: -3.25 ± 0.22 and -0.592 ± 0.13.

Consider AGAUAGCAAUAUUACGUACG, for which the “self-splicing fitness (ln)” value reads like this: (30 °C) -1.38 ± 0.096; (37 °C) -0.00695 ± 0.11. With UGUCAGCAAUAUUACGACUC, the “self-splicing fitness (ln)” value (30 °C) is -1.12 ± 0.14 and the “self-splicing fitness (ln)” value (37 °C) was found to be 0.256 ± 0.16. For AGCCAGCAAUAUUACGGUAC, the “self-splicing fitness (ln)” value was -2.97 ± 0.2 (30 °C) and -1.24 ± 0.13 (37 °C).

As for CUCCAGCAAUAUUACGAGCC, the “self-splicing fitness (ln)” value was -2.73 ± 0.22 (30 °C) and -2.15 ± 0.28 (37 °C).

For the sequence GUCUAGCAAUAUUACGAACG, the “self-splicing fitness (ln)” value was -1.83 ± 0.2 (30 °C) and -1.13 ± 0.23 (37 °C). UAGAAGCAAUAUUACGACUC: the “self-splicing fitness (ln)” value was -0.192 ± 0.12 (30 °C) and -0.013 ± 0.16 (37 °C).

Regarding UGCAAGCAAUAUUACGUUCC, the “self-splicing fitness (ln)” value was -3.72 ± 0.33 (30 °C) and -1.43 ± 0.36 (37 °C). Turning to AUAGAGCAAUAUUACGGAGC, the “self-splicing fitness (ln)” value (37 °C) is -2.05 ± 0.38. In the case of UCAAAGCAAUAUUACGAGAC, the “self-splicing fitness (ln)” value runs as follows: (30 °C) -3.15 ± 0.17; (37 °C) -2.76 ± 0.22.

In the case of CUAUAGCAAUAUUACGAUAG, for the setting “37 °C”, the “self-splicing fitness (ln)” value is -2.54 ± 0.39. As for CCUCAGCAAUAUUACGGCGU, the “self-splicing fitness (ln)” value (30 °C) was -3.42 ± 0.21 and the “self-splicing fitness (ln)” value (37 °C) was -2.64 ± 0.27. For ACAUAGCAAUAUUACGACUA, the “self-splicing fitness (ln)” value was -0.666 ± 0.11 (30 °C) and -0.473 ± 0.1 (37 °C).
